Experimental data: patent US20200308257A1 (VISTERRA, published 2020)
Several values for one entry are separate records, joined by “and”; a condition that tells them apart may be missing. Equal entries are not always repeated.

Tests used:
Test in all cases: cell-based or functional assay
[1] = biological target: T1, hemagglutinin (HA) of influenza A/Hong Kong/4801/2014 (H3N2) (influenza A virus (H3N2))
[2] = biological target: hemagglutinin (HA) of influenza A/California/04/2009 (H1N1) (influenza A virus (H1N1))
[3] = biological target: T2, hemagglutinin (HA) of influenza A/Michigan/45/2015 (H1N1)pdm09 (influenza A virus (H1N1))
[4] = biological target: hemagglutinin (HA) of influenza A/Florida/70327/2017 (H3N2) (influenza A virus (H3N2))
[5] = biological target: hemagglutinin (HA) of influenza A/Serbia/0502013/2018 (H1N1) (influenza A virus (H1N1))
[6] = biological target: hemagglutinin (HA) of influenza A/Singapore/2401001/2018 (H3N2) (influenza A virus (H3N2))
[7] = biological target: hemagglutinin (HA) of influenza A/Florida/70604/2017 (H3N2) (influenza A virus (H3N2))
[8] = biological target: hemagglutinin (HA) of influenza A/Spain/2602001/2018 (H1N1) (influenza A virus (H1N1))
[9] = biological target: hemagglutinin (HA) of influenza A/Florida/70702/2017 (H1N1) (influenza A virus (H1N1))
[10] = biological target: hemagglutinin (HA) of influenza A/California/7/2009 (H1N1) (influenza A virus (H1N1))
[11] = biological target: hemagglutinin (HA) of influenza A/Pennsylvania/0725005/2018 (H3N2) (influenza A virus (H3N2))
[12] = biological target: hemagglutinin (HA) of influenza A/Florida/70609/2017 (H3N2) (influenza A virus (H3N2))
[13] = biological target: hemagglutinin (HA) of influenza A/Switzerland/8060/2017 (H3N2) (influenza A virus (H3N2))
[14] = biological target: hemagglutinin (HA) of influenza A/France/1302001/2018 (H1N1) (influenza A virus (H1N1))
[15] = biological target: hemagglutinin (HA) of influenza A/Malay sia/1701001/2018 (H1N1) (influenza A virus (H1N1))
[16] = biological target: hemagglutinin (HA) of influenza A/Latvia/0303005/2018 (H1N1) (influenza A virus (H1N1))
[17] = biological target: hemagglutinin (HA) of influenza A/Spain/2604004/2018 (H3N2) (influenza A virus (H3N2))
[18] = biological target: hemagglutinin (HA) of influenza A/Serbia/0502016/2018 (H1N1) (influenza A virus (H1N1))
[19] = biological target: hemagglutinin (HA) of influenza A/Georgia/0720004/2018 (H3N2) (influenza A virus (H3N2))
[20] = biological target: T1, hemagglutinin (HA) of influenza A/Hong …; remark: listed apart in the source
[21] = biological target: hemagglutinin (HA) of influenza A/Latvia/0304001/2018 (H1N1) (influenza A virus (H1N1))
[22] = biological target: hemagglutinin (HA) of influenza A/Latvia/30101/2017 (H3N2) (influenza A virus (H3N2))
[23] = biological target: hemagglutinin (HA) of influenza A/Bulgaria/0106011/2018 (H3N2) (influenza A virus (H3N2))
[24] = biological target: hemagglutinin (HA) of influenza A/Spain/2609001/2018 (H1N1) (influenza A virus (H1N1))
[25] = biological target: hemagglutinin (HA) of influenza A/Sydney/0903001/2018 (H3N2) (influenza A virus (H3N2))
[26] = biological target: hemagglutinin (HA) of influenza A/Latvia/0303004/2018 (H3N2) (influenza A virus (H3N2))
[27] = biological target: T2, hemagglutinin (HA) of influenza …; remark: listed apart in the source
[28] = biological target: hemagglutinin (HA) of influenza A/Brisbane/02/2018 (H1N1) (influenza A virus (H1N1))
[29] = biological target: hemagglutinin (HA) of influenza A/Latvia/30314/2017 (H3N2) (influenza A virus (H3N2))
[30] = biological target: hemagglutinin (HA) of influenza A/Florida/71210/2017 (H3N2) (influenza A virus (H3N2))
[31] = biological target: hemagglutinin (HA) of influenza A/North Carolina/71330/2017 (H3N2) (influenza A virus (H3N2))
[32] = biological target: hemagglutinin (HA) of influenza A/Bulgaria/10101/2017 (H3N2) (influenza A virus (H3N2))
[33] = biological target: hemagglutinin (HA) of influenza A/Thailand/2702006/2018 (H3N2) (influenza A virus (H3N2))
[34] = biological target: hemagglutinin (HA) of influenza A/Georgia/0720001/2018 (H1N1) (influenza A virus (H1N1))
[35] = biological target: hemagglutinin (HA) of influenza A/Florida/71268/2017 (H3N2) (influenza A virus (H3N2))
[36] = biological target: hemagglutinin (HA) of influenza A/Pennsylvania/0725006/2018 (H3N2) (influenza A virus (H3N2))
[37] = biological target: hemagglutinin (HA) of influenza A/France/1307001/2018 (H1N1) (influenza A virus (H1N1))
[38] = biological target: hemagglutinin (HA) of influenza A/Kansas/14/2017 (H3N2) (influenza A virus (H3N2))
[39] = biological target: hemagglutinin (HA) of influenza A/Singapore/INFIMH-16 0019/2016 (H3N2) (influenza A virus (H3N2))
[40] = biological target: hemagglutinin (HA) of influenza A/France/1306001/2018 (H1N1) (influenza A virus (H1N1))
[41] = biological target: hemagglutinin (HA) of influenza A/Thailand/2702008/2018 (H1N1) (influenza A virus (H1N1))
[42] = biological target: hemagglutinin (HA) of influenza A/Ohio/0717002/2018 (H3N2) (influenza A virus (H3N2))
[43] = biological target: hemagglutinin (HA) of influenza A/Georgia/0720003/2018 (H3N2) (influenza A virus (H3N2))
[44] = biological target: hemagglutinin (HA) of influenza A/Florida/70303/2017 (H3N2) (influenza A virus (H3N2))
[45] = biological target: hemagglutinin (HA) of influenza A/Belarus/1003001/2018 (H3N2) (influenza A virus (H3N2))

B1: VIS410 (antibody, V domains shown)
VH: QVQLLETGGGLVKPGQSLKLSCAASGFTFTSYAMHWVRQPPGKGLEWVAVVSYDGNYKYYADSVQGRFTISRDNSKNTLYLQMNSLRAEDTAVYYCAKDSRLRSLLYFEWLSQGYFNPWGQGTTLTVSS
VL: DIQMTQSPSSLSASVGDRVTITCRSSQSITFDYKNYLAWYQQKPGKAPKLLIYWGSYLESGVPSRFSGSGSGTDFTLTISSLQPEDFATYYCQQHYRTPPSFGQGTKVEIK
EC50, NP ELISA infection assay, both assay formats [1]: 0.01 µM and 0.02 µM | EC50, virus infection of MDCK-London cells (NP ELISA microneutralization) [1]: ~0.01 µM and ~1.5 µg/ml | EC50, virus infection of MDCK-London cells (NP ELISA microneutralization) [2]: ~0.006 µM and ~0.9 µg/ml | EC50 (µM) - Replicate 1, CPE assay [3]: 0.013 µM | EC50 (µM) - Replicate 2, CPE assay [3]: 0.011 µM | IC50, phenotypic IC50 assay (virus infection of MDCK cells) [4]: 0.67 µg/mL | IC50, phenotypic IC50 assay (virus infection of MDCK cells) [5]: 0.67 µg/mL | IC50, phenotypic IC50 assay (virus infection of MDCK cells) [6]: 1.17 µg/mL | IC50, phenotypic IC50 assay (virus infection of MDCK cells) [7]: 1.23 µg/mL | IC50, phenotypic IC50 assay (virus infection of MDCK cells) [8]: 0.42 µg/mL | IC50, phenotypic IC50 assay (virus infection of MDCK cells) [9]: 0.41 µg/mL | IC50, phenotypic IC50 assay (virus infection of MDCK cells) [10]: 0.52 µg/mL | IC50, phenotypic IC50 assay (virus infection of MDCK cells) [11]: 2.2 µg/mL | IC50, phenotypic IC50 assay (virus infection of MDCK cells) [12]: 2.41 µg/mL | IC50, phenotypic IC50 assay (virus infection of MDCK cells) [13]: 1.07 µg/mL | IC50, phenotypic IC50 assay (virus infection of MDCK cells) [14]: 0.86 µg/mL | IC50, phenotypic IC50 assay (virus infection of MDCK cells) [15]: 0.4 µg/mL | IC50, phenotypic IC50 assay (virus infection of MDCK cells) [16]: 0.87 µg/mL | IC50, phenotypic IC50 assay (virus infection of MDCK cells) [17]: 0.92 µg/mL | IC50, phenotypic IC50 assay (virus infection of MDCK cells) [18]: 0.37 µg/mL | IC50, phenotypic IC50 assay (virus infection of MDCK cells) [19]: 0.97 µg/mL | IC50, phenotypic IC50 assay (virus infection of MDCK cells) [20]: 1.65 µg/mL | IC50, phenotypic IC50 assay (virus infection of MDCK cells) [21]: 0.57 µg/mL | IC50, phenotypic IC50 assay (virus infection of MDCK cells) [22]: 0.28 µg/mL | IC50, phenotypic IC50 assay (virus infection of MDCK cells) [23]: 1.67 µg/mL | IC50, phenotypic IC50 assay (virus infection of MDCK cells) [24]: 0.43 µg/mL | IC50, phenotypic IC50 assay (virus infection of MDCK cells) [25]: 1.49 µg/mL | IC50, phenotypic IC50 assay (virus infection of MDCK cells) [26]: 4.47 µg/mL | IC50, phenotypic IC50 assay (virus infection of MDCK cells) [27]: 0.89 µg/mL | IC50, phenotypic IC50 assay (virus infection of MDCK cells) [28]: 0.55 µg/mL | IC50, phenotypic IC50 assay (virus infection of MDCK cells) [29]: 1 µg/mL | IC50, phenotypic IC50 assay (virus infection of MDCK cells) [30]: 0.97 µg/mL | IC50, phenotypic IC50 assay (virus infection of MDCK cells) [31]: 0.92 µg/mL | IC50, phenotypic IC50 assay (virus infection of MDCK cells) [32]: 0.22 µg/mL | IC50, phenotypic IC50 assay (virus infection of MDCK cells) [33]: 1.13 µg/mL | IC50, phenotypic IC50 assay (virus infection of MDCK cells) [34]: 0.71 µg/mL | IC50, phenotypic IC50 assay (virus infection of MDCK cells) [35]: 3.14 µg/mL | IC50, phenotypic IC50 assay (virus infection of MDCK cells) [36]: 1.5 µg/mL | IC50, phenotypic IC50 assay (virus infection of MDCK cells) [37]: 0.86 µg/mL | IC50, phenotypic IC50 assay (virus infection of MDCK cells) [38]: 2.65 µg/mL | IC50, phenotypic IC50 assay (virus infection of MDCK cells) [39]: 1.35 µg/mL | IC50, phenotypic IC50 assay (virus infection of MDCK cells) [40]: 0.91 µg/mL | IC50, phenotypic IC50 assay (virus infection of MDCK cells) [41]: 0.55 µg/mL | IC50, phenotypic IC50 assay (virus infection of MDCK cells) [42]: 0.81 µg/mL | IC50, phenotypic IC50 assay (virus infection of MDCK cells) [43]: 0.49 µg/mL | IC50, phenotypic IC50 assay (virus infection of MDCK cells) [44]: 0.34 µg/mL | IC50, phenotypic IC50 assay (virus infection of MDCK cells) [45]: 1.26 µg/mL
